{"source": "patent US20170097353A1", "about": "“Polymer Viral Compositions” (The Regents of the University of California, priority 2015, published 2017)", "key": {"[1]": {"experiment": "Dynamic light scattering (DLS) size measurement", "assay_type": "physicochemical", "experimental": "For determination of size, 1 mL of each sample was measured at the same concentration as used for the biological assay. Each sample was measured at least three times at 25° C., with each individual size measurement being the average of 10 runs."}, "PSMA on LNCaP cells": {"biological_target": "T1, PSMA on LNCaP cells (Homo sapiens, UniProt Q04609)", "T1 construct": "endogenous in cells; host or cells: LNCaP (also LNCaP CSS), glutaraldehyde-fixed on Maxisorp plates", "T1 sequence (Q04609 whole entry)": "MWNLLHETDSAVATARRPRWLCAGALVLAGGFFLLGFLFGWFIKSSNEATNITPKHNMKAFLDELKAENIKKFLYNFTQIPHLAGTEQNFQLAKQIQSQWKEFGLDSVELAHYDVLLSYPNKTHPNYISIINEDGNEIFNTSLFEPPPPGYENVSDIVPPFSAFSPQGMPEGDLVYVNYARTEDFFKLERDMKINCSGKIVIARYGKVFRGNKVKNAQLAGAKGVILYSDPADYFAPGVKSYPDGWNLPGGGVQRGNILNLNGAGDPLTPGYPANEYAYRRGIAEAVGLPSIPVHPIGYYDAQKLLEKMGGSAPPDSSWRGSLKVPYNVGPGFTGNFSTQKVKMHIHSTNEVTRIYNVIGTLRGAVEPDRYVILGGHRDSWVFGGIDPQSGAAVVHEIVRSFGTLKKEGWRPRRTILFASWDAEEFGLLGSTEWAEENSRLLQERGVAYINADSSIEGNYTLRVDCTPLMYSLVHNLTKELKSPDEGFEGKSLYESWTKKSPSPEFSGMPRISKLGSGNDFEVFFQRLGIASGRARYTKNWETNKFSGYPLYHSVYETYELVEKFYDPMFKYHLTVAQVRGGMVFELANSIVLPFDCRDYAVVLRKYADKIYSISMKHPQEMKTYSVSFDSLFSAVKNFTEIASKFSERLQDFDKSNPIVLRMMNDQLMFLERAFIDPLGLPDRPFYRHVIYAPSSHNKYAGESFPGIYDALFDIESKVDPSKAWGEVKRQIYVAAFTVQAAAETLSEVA", "experiment": "Cell-based phage ELISA, recognition of cell surface PSMA by PEGylated ligands on phage", "conditions": "for binding affinity of dual ligand combinations: 2:1 dual ligand combinations on phage, FIG. 5B; for binding affinity for cell surface PSMA: PEGylated ligand 2 variants, specific/non-specific attachment, with/without PEG4 linker, FIG. 5A", "experimental": "Day 1: The cell-based ELISA was performed as previously described by Watanabe et. al. with the following modifications. Cells were detached with Trypsin-EDTA, resuspended in PBS, and then collected by centrifuging at 1200 rpm for 5 min. The cells were further washed with PBS and then concentrated as in the previous step. The concentration of the cells was adjusted to 4.5×10^6 cells/mL in PBS using a hemocytometer, and 100 μL was aliquoted to specific wells of a 96-well microtiter plate (Maxisorp plates from Nunc). The Maxisorp plates used here have a high protein-binding capacity. Thus, the plates can be used to run assays with either the cells or the phage immobilized in the wells. Next, 50 μL of a 0.15% glutaraldehyde in PBS solution was added to the wells at 4° C., and the solution was gently mixed by pipetting. The ELISA plate was then centrifuged at 1200 rpm for 10 min at 4° C., followed by overnight incubation at 4° C.\nDay 2: The cell solution was gently removed, and the wells were blocked with 200 μL/well of blocking buffer containing 100 mM glycine, 1% gelatin and 0.1% w/v BSA (bovine serum albumin) in PBS. The plate was incubated overnight (˜20-22 h) at room temperature.\nSeparately, phage were prepared before attachment to PEG and PEGylated ligands. Phage (10 nM in 100 μL of PBS) and 1 μL of K14-alkyne (525 μM in water) were thoroughly mixed by pipetting ˜25 times. For phage wrapped with PEGylated ligands, phage were mixed with 0.75 μL of K14-Cys (525 μM in water). For mixed wrapping on the phage surface, 0.5 μL of K14-alkyne was pre-mixed with 0.75 μL of K14-Cys, and then mixed with 100 μL of 10 nM phage. The solution was shaken at room temperature for 15 min on an orbital shaker. Next, 2 μL of PEGylated ligand (625 μM in water) was added to the appropriate wells. For the dual ligand combinations, the PEGylated ligands were pre-mixed in the desired ratio (a 2:1 molar ratio for example), and then 2 μL of the mixture was added to the appropriate wells. The solutions were gently mixed by pipetting, and incubated overnight at 4° C.\nDay 3: Next, the click reaction was performed, as previously described, but with the following modifications. To buffer the pH, triethylammonium acetate was added to a final concentration of 50 mM, followed by the addition of 1.5 μL of 1 mM azide-functionalized PEG. The solutions were mixed by pipetting. Next, ascorbic acid was added to a final concentration of 1 mM and the solutions were mixed by gently pipetting. Then, copper sulfate was added to a final concentration of 1.5 mM, followed by pipetting to mix the solutions. Water was added to the other wells to maintain consistent phage concentrations. The plate was incubated at room temperature for 30 min.\nThe wells of the ELISA plate were then incubated with the phage samples. The blocking buffer was removed and the wells were gently washed two times with PBS. Next, the phage solution was added to the respective wells and incubated for 45 min. The phage solution was removed, and the wells were washed three times with 300 μL/well of wash buffer PT (0.05% Tween-20 in PBS), once with PBS, and then incubated with horseradish peroxidase-conjugated anti-M13 antibody (100 μL/well, 1:5000 dilution in PBS) for 40 min. The wells were washed three times with PT and once with PBS. The plate was then developed by incubating with HRP substrate solution (100 μL/well; 1 mg/mL o-phenylenediamine dihydrochloride and 0.02% w/v H2O2) in citric acid buffer (50 mM citric acid, 50 mM Na2HPO4, pH 5.0). The HRP activity was measured spectrophotometrically at 450 nm using a microtiter plate reader (Bio-Tek). The absorbance at 630 nm was subtracted from the absorbance at 450 nm to eliminate background."}, "PSMA": {"biological_target": "T2, PSMA (Homo sapiens, UniProt Q04609)", "T2 construct": "The effective detection of PSMA shed by LNCaP cells, in androgen sensitive and androgen independent cells; endogenous in cells; host or cells: culture supernatant of LNCaP and LNCaP CSS cells", "T2 sequence (Q04609 whole entry)": "as above", "conditions": "genetically encoded, phage-displayed ligands [4,10]; cited from earlier work"}}, "note": "“Also recorded” adds a separate entry of the source. Ends that are not written are not given here. * marks the point of attachment. Pent4ynoyl = C#CCCC(=O)*", "data": [{"substance": "K14-Cys: oligolysine (K14) peptide with cysteine, wraps the phage, SEQ ID NO:2 (KKKKKKKKKKKKKKC; not fully specified (C-terminus))", "values": [{"measurement": "average cross-sectional diameter", "setting": "[1]; DLS backscatter mode, scattering angle 173°, FIG. 3A", "result": 50.0, "unit": "nm"}]}, {"substance": "K14-alkyne: alkyne-functionalized oligolysine (K14) peptide that wraps the phage, SEQ ID NO:1 (Pent4ynoyl-KKKKKKKKKKKKKK-NH2; SMILES C#CCCC(=O)N[C@@H](CCCCN)C(=O)N[C@@H](CCCCN)C(=O)N[C@@H](CCCCN)C(=O)N[C@@H](CCCCN)C(=O)N[C@@H](CCCCN)C(=O)N[C@@H](CCCCN)C(=O)N[C@@H](CCCCN)C(=O)N[C@@H](CCCCN)C(=O)N[C@@H](CCCCN)C(=O)N[C@@H](CCCCN)C(=O)N[C@@H](CCCCN)C(=O)N[C@@H](CCCCN)C(=O)N[C@@H](CCCCN)C(=O)N[C@@H](CCCCN)C(N)=O)", "values": [{"measurement": "PSMA recognition / binding affinity with PEG spacers", "setting": "PSMA on LNCaP cells; dual ligand combination P100SP-P4-2+P100SP-P4-1 with or without spacers, LNCaP cells, FIG. 6", "result": "no effect on binding affinity"}]}, {"substance": "P100NSP-2+P100NSP-1: phage wrapped with 2:1 dual ligand combination of P100NSP-2 and P100NSP-1 (peptide 1 SECVEVFQNSCDW; peptide 2 CALCEFLG)", "values": [{"measurement": "binding affinity of dual ligand combinations", "setting": "PSMA on LNCaP cells; LNCaP cells", "result": "only a modest improvement"}, {"measurement": "recognition of PSMA on LNCaP cells", "setting": "PSMA on LNCaP cells; different ratios of the two PEGylated, phage-wrapped ligands, FIG. 4", "result": "maximize the recognition of PSMA on LNCaP cells"}]}, {"substance": "P100NSP-2: PEG100, non-specific attachment to ligand 2; bioconjugated to phage wrapped with K14-Cys (SECVEVFQNSCDW-NH2; not fully specified (N-terminus); cysteine pairing not given here; also: PEG100 attached non-specifically)", "values": [{"measurement": "binding affinity for LNCaP cells", "setting": "PSMA on LNCaP cells; phage wrapped with K14-Cys and individual PEGylated ligand, FIG. 14", "result": "higher affinity for LNCaP cells compared to P100NSP-1"}]}, {"substance": "P100NSP-P4-2+P100NSP-P4-1: phage wrapped with dual ligand combination, non-specific attachment with PEG4 linker (peptide 1 SECVEVFQNSCDW-NH2; peptide 2 CALCEFLG-NH2; not fully specified (N-terminus); cysteine pairing not given here; also: PEG100 non-specific attachment with PEG4 linker)", "values": [{"measurement": "binding affinity of dual ligand combinations", "setting": "PSMA on LNCaP cells; LNCaP cells", "result": "drop in affinity; also recorded: affinity equivalent to P100NSP-P4-2"}]}, {"substance": "P100SP-2: PEG100, specific attachment to ligand 2; bioconjugated to phage wrapped with K14-Cys (SECVEVFQNSCDW-NH2; not fully specified; cysteine pairing not given here; also: specific N-terminal attachment to Mal-PEG100 via triazole)", "values": [{"measurement": "binding affinity for cell surface PSMA", "setting": "PSMA on LNCaP cells", "result": "higher binding affinity for cell surface PSMA than P100NSP-2"}]}, {"substance": "P100SP-P4-2+P100SP-P4-1: phage wrapped with dual ligand combination in a 2:1 ratio, specific attachment with PEG4 linker (peptide 1 SECVEVFQNSCDW-NH2; peptide 2 CALCEFLG-NH2; not fully specified (N-terminus); cysteine pairing not given here; also: mixture of two PEG100 conjugates (ligand 2 and ligand 1, 2:1) with PEG4 linker, specific N-terminal triazole attachment)", "values": [{"measurement": "binding affinity of dual ligand combinations", "setting": "PSMA on LNCaP cells; LNCaP cells", "result": "significant increase in binding affinity"}]}, {"substance": "P100SP-P4-2: PEG100, specific attachment, PEG4 linker, ligand 2; on phage wrapped with K14-Cys (SECVEVFQNSCDW-NH2; not fully specified (N-terminus); cysteine pairing not given here; also: PEG100, specific attachment, PEG4 linker)", "values": [{"measurement": "binding affinity for cell surface PSMA", "setting": "PSMA on LNCaP cells", "result": "most effective architecture"}, {"measurement": "increase in cross-sectional diameter", "setting": "[1]; DLS backscatter mode, relative to previous wrapping step, FIGS. 3A-3B", "result": 10, "unit": "nm"}]}, {"substance": "PEGylated oligolysine: K14-alkyne pre-conjugated to azide PEG7, 22 or 45 by click reaction, then applied to phage (Pent4ynoyl-KKKKKKKKKKKKKK-NH2; also: alkyne click-conjugated (triazole) to azide PEG7, 22 or 45)", "values": [{"measurement": "change in the cross-sectional diameter of the treated phage", "setting": "[1]; DLS, phage treated with pre-formed PEGylated oligolysine (data not shown)", "result": "no significant change"}]}, {"substance": "SECVEVFQNSCDW [ligand-2]", "values": [{"measurement": "higher affinity to PSMA than ligand-1", "setting": "PSMA", "result": "> 100", "unit": "fold"}]}]}
